Numbering of substitutions follows the chain as printed. Values belong to the binder of their own block, whether it stands above or below them.
How the values were obtained:
[1] = target: T1, human CD70 on cells (CD70-positive 786-O cells, Raji cells, CHO-S cells expressing human full-length CD70, … (human, UniProt P32970 1-193)); test: cell-based or functional assay
T1 sequence (looked up): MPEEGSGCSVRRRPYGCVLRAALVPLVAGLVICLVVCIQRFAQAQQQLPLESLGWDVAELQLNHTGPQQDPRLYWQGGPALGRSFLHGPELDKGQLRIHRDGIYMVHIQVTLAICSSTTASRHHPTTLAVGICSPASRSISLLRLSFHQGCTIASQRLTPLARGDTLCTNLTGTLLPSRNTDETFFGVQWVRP

[2] = target: T1, human CD70 on cells (CD70-positive …); test: flow cytometry competition on CHO-S cells expressing human full-length CD70; blocked ligand: biotin-labeled CD27-Fc, Alexa Fluor 488 streptavidin detection
Method: The cell-blocking activity of the anti-CD70 antibodies was assayed by flow cytometry. CHO-S cells expressing human full-length CD70 (Invitrogen, R80007) at 1×10⁶ cells/mL were blocked with 1% BSA PBS buffer, followed by the addition with diluted anti-CD70 antibody samples at different concentrations and biotin-labeled CD27-Fc (set forth in SEQ ID NO: 84), and the mixture was incubated for 1 h. After the plate was washed twice, Alexa Fluor 488-streptavidin (Invitrogen, CAT #S11223) was added, and the mixture was incubated for 1 h. After the plate was washed twice, fluorescence signals were read using a flow cytometer.

[3] = target: T1, human CD70 on cells (CD70-positive …); test: flow cytometry on CD70-positive 786-O cells, Alexa Fluor 488 goat anti-human (H+L) detection
Method: (§1) 786-O cells (ATCC, CRL-1932) or Raji cells (ATCC, CCL-86) at 1×10⁶ cells/mL were blocked with 1% BSA PBS buffer, followed by the addition of diluted anti-CD70 antibody samples at different concentrations were added, and the mixture was incubated for 1 h. After the plate was washed twice, Alexa Fluor 488-goat anti-human (H+L) antibody (Invitrogen, CAT #A 11013) was added, and the mixture was incubated for 1 h. After the plate was washed twice, fluorescence signals were read using a flow cytometer.

[4] = target: T1, human CD70 on cells (CD70-positive …); test: flow cytometry on CD70-positive Raji cells, Alexa Fluor 488 goat anti-human (H+L) detection
Method: as §1

- IC50 (ng/mL), inhibition of IL-8 secretion mediated by CD70/CD27 binding (U266 cells + HT1080/CD27 cells) [1]: 24.2 ng/mL
- Imax (%), maximum inhibition rate of IL-8 secretion from CD27 cells [1]: 71.1%
- EC50 (read off the curve) [3]: ~0.03 µg/mL
- EC50 (read off the curve) [4]: ~0.04 µg/mL
B3: 41D12 (afuc) (antibody, human IgG1, lambda, V domains shown)
VH: EVQLVESGGGLVQPGGSLRLSCAASGFTFSVYYMNWVRQAPGKGLEWVSDINNEGGTTYYADSVKGRFTISRDNSKNSLYLQMNSLRAEDTAVYYCARDAGYSNHVPIFDSWGQGTLVTVSS
VL: QAVVTQEPSLTVSPGGTVTLTCGLKSGSVTSDNFPTWYQQTPGQAPRLLIYNTNTRHSGVPDRFSGSILGNKAALTITGAQADDEAEYFCALFISNPSVEFGGGTQLTVLG
modifications: non-fucosylated (heavy chain not modified by fucosylation)
notes: also called non-fucosylated antibody of 41D12

- EC50 (read off the curve) [3]: ~0.02 µg/mL
- EC50 (read off the curve) [4]: ~0.02 µg/mL
- IC50 (read off the curve) [2]: ~0.3 µg/mL
B5: huB1010 (afuc) (antibody, human IgG1, kappa, V domains shown)
VH: EVQMVQSGAEVKKPGASVKVSCKASGYTFTTYNIHWVRQAPGQGLEWMGDIYPGTGDASYNQKFRDRVTMTRDTSTSTVYMELSSLRSEDTAVYYCATFSRFDGWFAYWGQGTLVTVSS
VL: DIVMTQSPDSLAVSLGERATINCRASRSVSTSGYSYMHWYQQKPGQPPKLLIYLADNLESGVPDRFSGSGSGTDFTLTISSLQAEDVAVYYCQHSRELPYTFGGGTKVEIKR
modifications: non-fucosylated (heavy chain not modified by fucosylation)
notes: also called non-fucosylated antibody of huB1010

Continued, binder first:

B1: huB7002 (afuc) (antibody, human IgG1, kappa, V domains shown)
VH: EVQLVQSGSELKKPGASVKVSCKASGYTFTNYGMNWVRQAPGQGLEWMGWINTYTGEPTYADEFKGRFVFSLDTSVSTAYLQISSLKAEDTAVYYCARGDSFTTEILRNWYFDVWGQGTTVTVSS
VL: DIQMTQSPSSLSASVGDRVTITCGASENIYGALNWYQQKPGKVPKLLIYGATNLADGVPSRFSGSGSGTDFTLTISSLQPEDVATYYCQNVLSTPWTFGGGTKVEIKR
modifications: non-fucosylated (heavy chain not modified by fucosylation)
notes: also called non-fucosylated antibody of huB7002
- IC50 (ng/mL), inhibition of IL-8 secretion mediated by CD70/CD27 binding (U266 cells + HT1080/CD27 cells) [1]: 19.8 ng/mL
- Imax (%), maximum inhibition rate of IL-8 secretion from CD27 cells [1]: 91.7%
- IC50 (read off the curve) [2]: ~0.4 µg/mL

B2: 41D12 (positive control antibody, see WO2012123586) (antibody, human IgG1, lambda, V domains shown)
VH: B3 VH
VL: B3 VL
- IC50 (ng/mL), inhibition of IL-8 secretion mediated by CD70/CD27 binding (U266 cells + HT1080/CD27 cells) [1]: 23.3 ng/mL
- Imax (%), maximum inhibition rate of IL-8 secretion from CD27 cells [1]: 70.9%
- EC50 (read off the curve) [3]: ~0.03 µg/mL
- EC50 (read off the curve) [4]: ~0.01 µg/mL

B4: huF4011 (afuc) (antibody, human IgG1, kappa, V domains shown)
VH: EVQLVQSGAEVKKPGSSVKVSCKASGDTFPRYNMHWVRQAPGQGLEWMGAIFPGTGETSYNQNFKGRVTLTADKSTSTAYMELSSLRSEDTAVYYCARNSYYDYAWFTYWGQGTLVTVSS
VL: B5 VL with R27K, T31S, Y36F, Y53S, L98F, Y100P, G104Q, V108L
modifications: non-fucosylated (heavy chain not modified by fucosylation)
notes: also called non-fucosylated antibody of huF4011
- IC50 (ng/mL), inhibition of IL-8 secretion mediated by CD70/CD27 binding (U266 cells + HT1080/CD27 cells) [1]: 13 ng/mL
- Imax (%), maximum inhibition rate of IL-8 secretion from CD27 cells [1]: 92.3%
- EC50 (read off the curve) [3]: ~0.02 µg/mL
- EC50 (read off the curve) [4]: ~0.02 µg/mL
- IC50 (read off the curve) [2]: ~0.3 µg/mL
